In the DeepSol protein solubility set:

Test: soluble on expression in E. coli; label from the status in PepcDB or PDB records

Sequence | soluble on expression in E. coli
SENSDVINFSCLEKELHSALQADRKYQRENDAKFRALNQKVASYEEFRDIVLASHLKPLDRNDISGSPRKQPWNPVACRTNYVCASSEQVQPQLSEVQPRSASEFIRDWRRFAGCSFEKYSLLVSLGGEALQKIFSTEIGLGLLGEFLLILSQCLKSGDEDRVTGVLDGLSKTGRFSINLSLLSQAEQEACEELFNKLKVAAGECHPYKDNSNTSVVCEAGLTHMEDNKTDITTTLKELAGKYGTEK | soluble
MQENSPLLQLQNVGYLAGDAKILNNINFSLRAGEFKLITGPSGCGKSTLLKIVASLISPTSGTLLFEGEDVSTLKPEIYRQQVSYCAQTPTLFGDTVYDNLIFPWQIRNRQPDPAIFLDFLERFALPDSILTKNIAELSGGEKQRISLIRNLQFMPKVLLLDEITSALDESNKHNVNEMIHRYVREQNIAVLWVTHDKDEINHADKVITLQPHAGEMQEARYELA | not soluble
MRGIHRLSALLVKSASQGKYCDGAGLWLNVRKDNTRSWFFRYTYHNKRREMGLGPVAQLSLKEARELAKHYSAILREGNDPIVFREQTVLKQQSNIFSEIATAAFESKKAELKNEGKNGRWFSPLELHVIPHIGSLSIEKLTANIIRNVLAPLWHEKADTARKALNRINICLKYAAALGLDVDLQACMKARALLGKPRATSTNIPAMPWQEVPAFYQSLDDKILSNLALKLLILTGVRSYPLRYLRLEQIDKDIWTIPKENMKGIVGKVSDFRVPLSHEALKMIEKSLPFEKNGFLFAGSSGKPISDVTLSKFMKDKGFDYRPHGFRSSLRDWIAETTSTPFEIAETVLAHSVGSSVTKAYMRTDFLEQRHTLMEQWAAFITGAT | not soluble
MSLKFAFIAKHRSIWPVAWLCEALGVSRSGFHAWFNRSPSEHARHDEVLLERIKQSFQSSDRTYGARRVWHDVLEEGLSCGLHRIERLMRLNALRARPRRRGFPKDAGDRPVVMPNVLDRQFVADRPNQKWVADFTYIWTAEGWLYVAAVIDLFSRRVVGWSMNANMTAQLVTDALIMAIWRRGKPDALLHHSDQGSQYTSEQFQRLMGDHGITCSMSRSGNVWDNAAMESFFSSLKTERTARKVYRTRNDARADVFDYIERFYNPKRRHSTLGYLSPDDFETKVGLAEGHHHHHH | not soluble
MRSSNNRHEGEEAMNRTQQWMEDLQKNISDLIARSPAADVERNVRAMMTQTFARLDLITREEFEVQVDLLARARTRVDQLSAQVQQLEARLAALEAGKPQA | not soluble
MESVKCFDMITAFFDLSDSVHVVRKNGGLAFGKTWLGNFFVLVREVKILRATTEKFSLVNLRKLEPHSGQFRNQIREESAYRHPFLRIVVKVILAKRLRPLPYLTSKSK | not soluble
MSEANIIHSRYGLRCEKLDKPLNLGWGLDNSAVLHCPGELPTGWLCDALDQIFIAAPQLSAVALPWAEWREEPQALTLFGQVKSDIIHRTAFWQLPLWLSSPANRASGEMVFDAEREIYFPQRPPRPQGEVYRRYDPRIRRMLSFRIADPVSDAERFTRWMNDPRVEYFWEQSGSLEVQTAYLERQLTGKHAFPLIGCFDDRPFSYFEIYWAAEDRIGRHYSWQPFDRGLHLLVGEQQWRGAHYVQSWLRGLTHYLLLDEPRTQRTVLEPRTDNQRLFRHLEPAGYRTIKEFDFPHKRSRMVMADRHHFFTEVGL | not soluble
MREPIVAIATPYGESAIGIVRLSGKGVLDLVKKFFKTKREIKPRYAHFGVLYDDKGEELDEGVLIYYKAPHSYTGEDMVELNLHGNPRILKRALELFVNAGARLAEPGEFTKRAFLNGKLDLTQAEAVAELISAKTELARKVALKQLHGELSKHIRPLRETLLELLAYVEADIEFAEEDIPTLTKEQVIQMVDKVIEGINELLKTAKTGKFIREGVKLAIVGRPNVGKSSLFNALLKEERAIVTDIAGTTRDFIEETLQIKGVPVRLVDTAGIRETKDLVERIGVERSKQKVKEADLILFVIDASQEITEEDLRIYEEIKEKDHIVVANKVDLGIRANLEKFKGEKIVKVSALKGTGLEELSEEILKKVGANLEESVNIYISVRHETLLKKAKEVLERFKEEFREKDISPEIAMLDLREASDYLGEILGEITTEDLLGKIFSTFCIGK | soluble
MSNTVLVSGASGFIALHILSQLLKQDYKVIGTVRSHEKEAKLLRQFQHNPNLTLEIVPDISHPNAFDKVLQKRGREIRYVLHTASPFHYDTTEYEKDLLIPALEGTKNILNSIKKYAADTVERVVVTSSCTAIITLAKMDDPSVVFTEESWNEATWESCQIDGINAYFASKKFAEKAAWEFTKENEDHIKFKLTTVNPSLLFGPQLFDEDVHGHLNTSCEMINGLIHTPVNASVPDFHSIFIDVRDVALAHLYAFQKENTAGKRLVVTNGKFGNQDILDILNEDFPQLRGLIPLGKPGTGDQVIDRGSTTDNSATRKILGFEFRSLHESVHDTAAQILKKENRL | not soluble
MAHMNLLSVTTGDGGLSRYLEEVRRFPMLEPQEEYMLAQRYRKHNDLKAAHKLVTSHLRLVAKIAVGYRGYGLPIGEVISEGNVGLMKAVKRFEPERGFRLATYAIWWIKASIQEYVLRSWSLVKMGTTANQKRLFFNLRKLKSRLQALDNGDLNAEQVKEIAIQLNVTEDEVVSMNRRLGGDTSLNAPLRTKEGENSEWQDWLVDDSNNQEQTLIEQNELENRRSMLTNALDNLNEREKRIFKARRLSDIPLTLEELSSEFNISRERVRQIEMRAFEKIQNSIKASALSQNQV | not soluble
MSLVLKCSLCINDERITKILTVNGRPICKECKAFLEHPPDKIKIRKELEELLSQVDKAIVAYSGGKDSTVALYLAKEEYDIDVEAVMVDHGFMAPQAIENAKKVSEYLNVPLTIIREDYSEIFKDALLKAKSPCRKCSRRTMEALRKYALEKGYKYIISGHELPFGHHPYRLMSGGIIQIRLLSLMSEKERMEILKKLPFKLPELPGYTSNCLILGPALERYWEKHGYSFEHRRIAALVRYGLLDREKALKKVEKPKVPEWQWELVEKKLNLIVRSLEGHHHHHH | soluble
MDFSGKNVWVTGAGKGIGYATALAFVEAGAKVTGFDQAFTQEQYPFATEVMDVADAAQVAQVCQRLLAETERLDALVNAAGILRMGATDQLSKEDWQQTFAVNVGGAFNLFQQTMNQFRRQRGGAIVTVASDAAHTPRIGMSAYGASKAALKSLALSVGLELAGSGVRCNVVSPGSTDTDMQRTLWVSDDAEEQRIRGFGEQFKLGIPLGKIARPQEIANTILFLASDLASHITLQDIVVDGGSTLGA | soluble
MAQGNPLTPEEIELLHAGDEENDNTDTLMVIRVPNDGSSATAISIPRDTYVHDENVGNLKINGVYRAYKNRKASELVNSGESDQKHIDELSKEAGRKALISSISDLTGVTVDHYAEVGLLGFVLLTNAVGGVDVCLNNDVYDEFSGADFKAGQQTLRDGQALAFVRQRHGLPRGDLDRIVRQQAFMASLVAKVLSSGTLTNPSKLSDLGEAVSRSVVIDKNWDVMSFANQLQNLAGGNVKFNTIPVTSIDGVGDYGESVVTVDKNQVHQFFDRLLNGNNGEETPTSDSEAPAENPHTSTTIDVLNATSTTGLASQVAGHLSAKHYTIGNIGNALEGMYHESQIVAADPNNEAVKAIAAELGGLPITQRNDLEHHHHHH | soluble
MTTPLISIRNLCVDYITDAGDVRACNNVSFDLAPGEVFGLAGESGCGKSTVAFSLMRLHKPPAFITGGEVIFNGEDILKYSDERMQAFRWKEMSMVFQSAMNALNPVLTMEEQFCDVITRHTNMTREQAKRRAEGLLEIVDIHPSRLNDYPHQFSGGMRQRLVIAIALALNPKMIIMDEPTTALDVVVQREILQKIYALKEEFGFSILFITHDLSLMVEFSDRIGIMYSGELIEVAPSKQILETPYHPYTKGLGSSFPPLTGPKTKLTGIPGNPLNLLDIPQGCRFQARCDRVHEACTKVPTVLRQIEHGRFSNCHLYTQSNATIKR | not soluble
MSLPILTIREVCNINHWGIGYYDVDDSGEIIVRPNPSQHNQTVSLQKLTEAVQQKHQARLPVLFCFPQILEHRLRDINRAFQTAREECGYKGGYCLVYPIKVNQHRRVIESLMSSGQPHGLEAGSKAELMAVLAHAGNRQTLIVCNGYKDREYIRFALMGEKLGHQVYLVIEKLSEIQMVLEEAEKLGIKPRLGVRARLASQGSGKWQSSGGEKSKFGLSASQVLQLVDILKQKNRLDCLQLLHFHLGSQLGNIRDVATGVHESARFYVELHKLGVNIRCFDVGGGLGVDYEGNRTQSDCSVNYSLNEYAATVVWGISQACLEHGLPHPTIITESGRGITAHHAVLVANVIGVERYKPRRLDAPSPEAPRVLHSMWETWTDISASREKRSLRSWIHEGQFDLADVHNQYNVGLLSLAQRAWAEQLYLNICHEVGELFNEKHRSHRTIIDELQERFADKLYVNFSLFQSLPDAWGIDQLFPVCPITGLNEPIARRAVLLDITCDSDGTIDHYIDGDGIAGTMPMPDYPEEEPPLLGFFMVGAYQEILGNMHNLFGDTATADVVVGEDGQFTVIDYDEGNTVADMLEYVYQDPKELMKRYREQIEHSDLPASQAMSFLKELEAGLNGYTYLEDEEGHHHHHH | soluble
MGSDKIHHHHHHMKKLICISLYEDLSMTTYDLSKVDNAELIGIVENASEGTLFVFTCDRPNGSSVIMCPGGGFLKTNLENEGIDFAEWFTKLGITYIVFKYRMPHGNPDVPEQDTRLALKVVREKFPEFCDKLGVMGASIGGYLATFSATLLPDDEKPDFQILMYPVVSVDDRLTHFPCRERMFGHSYSPDKMEQYSPIEHITSGTPAAFIVAAADDAVVSPLNGIMYAARLQKADIPISLHIYPAGGHGFGYNDSFVYKQEWLQELGEWLAKL | not soluble
MGSDKIHHHHHHMQMAVRWQLSGSYFENCSCDVVCPCLLSTKAQLTSRPTKGVCDVGLVFHIDTGNYGDVRLDGLSVALVAHTPGPMADGNWTAAAYIDERADDRQTEALGAIFTGAAGGPMAVLAPMIGTNLGAKKVPIDYRIDGKKRSAAIAGVMQMAVEPLPTMREDGQMWAATGHPVNPDWLGMAMGAQGSTFSDHGMSWDNSGQNGHYAPINWSGE | not soluble
MSLSPEHKRTALVTGANSGLGKAIVTALAADGLRVGLVARDRGRGEAALADVRAATGNQDLHLFVADLADQESIRALAQDVRARFDRLHLLINNAGTAFPERRLSPQGIERAFAINHLGPFLLTNLLLDLIKASAPARIVNVGTRIDAAIDFDDLNWDKRPYGMMKGYAQSKLGNLHFTFELARRLEGSGVTVNCVFPGVFKSNLGGTDGAQGLFWKLLAKLGGWAIPKPESAAQRVLYLANAPELESVSGQYYANRKTIPAPAQALDAEANRRLWEISERMTGLTQSQTVGDQAATEGHHHHHH | soluble
MSLARSRARVETIAELERTNAALQQALDENAALHAQLLVQAREAGVADERRRLAAEIHDTLAQGLTGIIAQLQVVAAAPDPALGREHLDRALALARHSLGEARRSVHNLSPVALAEDGLPDALKKTVTEWGARTGVQARFTVTGTAEHLHDEVAATLLRIAQEALSNTARHAAADRVGVTLSYMGDEVTLDIRDDGRGFDPLTARECGPGGGFGLDGMRARAERIAGSLTVEAEPGHGTAVSARVPLVRHDREGHHHHHH | soluble
MADQEHIDAGLLSTNFDMIQALPLNVKQRVCALKNLQMKTIQIESDFYKRVHELEIEFEGKFKSTFDQRKAIVAGEVEPTKEQIDTPILEGLEGDQLAELYKAAEADPSAKGIKDFWLTALRTHDLVAEAIEEHDVPILSYLTDVTTAASKDPAGFKIEFHFATNPYFKNQVLTKTYLLGFDPDAEAPLQFDGPHVIRAVGDTIEWEDGKNVTKKAVKKKQKKGANAGKFLTKTVKADSFFNFFEPPKSKDERNEDEDDEQAEEFLELDYEMGQAIRDTIIPRAVLFYTGELQSDDMFDFPGEDGDDVSDFSDDEA | soluble
MAAVKDSCGKGEMATGNGRRLHLGIPEAVFVEDVDSFMKQPGNETADTVLKKLDEQYQKYKFMELNLAQKKRRLKGQIPEIKQTLEILKYMQKKKESTNSMETRFLLADNLYCKASVPPTDKVCLWLGANVMLEYDIDEAQALLEKNLSTATKNLDSLEEDLDFLRDQFTTTEVNMARVYNWDVKRRNKDDSTKNKA | not soluble
